From patent US20200316166A1, “Drug and Method for Treating Liver Diseases Related to Hepatitis B Viruses in Full-Dose Condition” (Shanghai Hep Pharmaceutical Co., Ltd., priority 2017, published 2020)

Assays:
NTCP = target: T1, NTCP (Homo sapiens, UniProt Q14973); experiment: Binding of FITC-labeled polypeptide to NTCP-293 cells; settings: FITC label; for binding to NTCP-293 cells: 293 cells transfected with NTCP; for binding to 293 cells not transfected with NTCP (BLANK-293): control cells
T1 construct: expressed in transfected cells; host or cells: 293 (HEK293) cells
T1 sequence (Q14973 1-349): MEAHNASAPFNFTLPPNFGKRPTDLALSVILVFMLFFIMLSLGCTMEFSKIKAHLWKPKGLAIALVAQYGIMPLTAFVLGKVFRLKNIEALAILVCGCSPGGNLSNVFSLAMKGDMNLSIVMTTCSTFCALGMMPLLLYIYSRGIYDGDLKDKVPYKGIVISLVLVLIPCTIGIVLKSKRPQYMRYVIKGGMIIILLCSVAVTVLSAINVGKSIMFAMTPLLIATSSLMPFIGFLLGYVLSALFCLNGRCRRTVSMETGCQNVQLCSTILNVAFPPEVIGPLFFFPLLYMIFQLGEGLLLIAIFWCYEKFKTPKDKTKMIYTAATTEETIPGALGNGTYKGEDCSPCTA
Excerpt: NTCP-293 cell line was formed by transfecting non-hepatocyte-derived 293 cells with NTCP.

[1] = target: sodium taurocholate cotransporting polypeptide (NTCP) expressed on transfected 293 cells (NTCP-293) (human) (UniProt Q14973); experiment: cell-based or functional assay
[2] = listed as hepalatide labeled with FIFC

Chain of hepalatide (P31868 13-59): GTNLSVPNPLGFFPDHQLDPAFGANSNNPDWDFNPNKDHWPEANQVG

Substance | binding to NTCP-293 cells (NTCP) | binding to NTCP-293 cells (NTCP; [2]) | binding to 293 cells not transfected with NTCP (BLANK-293) (NTCP) | binding to 293 cells not transfected with NTCP (BLANK-293) (NTCP; [2]) | IC50 of inhibition of NTCP-293 uptake of 3H-labeled bile acid (3H-TA) [1]
FITC-hepalatide: hepalatide (Cmyr-47) fluorescently labeled by FITC at amino acid K at position 37 | bound to NTCP-293 cells | bind to NTCP expressing HEK293 cells | did not bind to 293 cells | do not bind to control HEK293 cells | –
hepalatide (peptide) | – | – | – | – | 0.839 µg/mL
